Measurements published in US20250144213A1 (UTC THERAPEUTICS SHANGHAI, published 2025).
Changes are numbered by the printed parent chain.

T1: BCMA-Fc recombinant protein (human, UniProt Q02223 1-54)
T1 construct: Soluble staining reagent, 5 µg/ml; not shown: Fc part
T1 sequence (looked up): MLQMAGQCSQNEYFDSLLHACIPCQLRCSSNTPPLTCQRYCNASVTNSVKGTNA

T2: CD123-Fc recombinant protein (human, UniProt P26951 19-305)
T2 construct: Soluble staining reagent; also called CD123-Fc protein; not shown: Fc part
T2 sequence (looked up): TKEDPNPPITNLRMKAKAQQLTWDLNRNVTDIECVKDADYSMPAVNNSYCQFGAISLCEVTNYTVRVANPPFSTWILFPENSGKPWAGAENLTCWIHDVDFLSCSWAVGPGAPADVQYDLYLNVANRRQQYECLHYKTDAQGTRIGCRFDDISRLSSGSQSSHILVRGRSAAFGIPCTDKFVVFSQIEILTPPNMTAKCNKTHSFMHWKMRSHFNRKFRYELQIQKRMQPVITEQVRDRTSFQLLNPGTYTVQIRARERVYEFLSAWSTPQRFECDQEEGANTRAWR

B1: anti-BCMA scFv BCMA33 (scFv)
scFv: QSALTQPPSASGSPGQSVTISCTGTSSDVGGYNYVSWYQQHPGKAPKLMIYEVSKRPSGVPDRFSGSKSGNTASLTVSGLQAEDEADYFCSSYAGSNNFVVFGGGTKLTVLGGGGSGGGGSGGGGSEVQLVESGGGLVQPGRSLRLSCAASGFTFDDYAMHWVRQAPGKGLEWVSGISWNSGSIGYADSVKGRFTISRDNAKNSLYLQMNSLRAEDTALYYCAKVGASAALGAFDIWGQGTMVTVSS
notes: also called BCMA33 scFv; BCMA33 CAR
B2: anti-BCMA scFv BCMA34 (scFv)
scFv: QPGLTQPPSVSKGLRQTATLTCTGNSNNVGNQGAAWLQQHQGHPPKLLSYRNNNRPSGISERFSASRSGNTASLTITGLQPEDEADYYCSAWDSSLSARVFGGGTKLTVLGGGGSGGGGSGGGGSQVQLVQSGAEVKKPGASVKVSCKTSGYTFSNPFVHWVRQAPGQGLEWVGIINLSGGDTLYAQKFQGGVTMTRDTSTNTAYMELTSLTFEDTAVYYCARDQAGFGDSAYWGQGTLVTVSS
notes: also called BCMA34 scFv; BCMA34 CAR
B3: anti-CD123 scFv-C34 (scFv)
scFv: QSALTQPPSASGSPGQSVTISCTGTRSDVGAYNYVSWYQHHPGKAPKLMLYDVSKRPSGVSDRFSGSKSGNTASLTVSGLQSEDEANYYCSSYAGSGKYVFGSGTELTVLGGGGSGGGGSGGGGSEVHLVESGGGLVKPGGSLRLSCAASGFTFSDTWMSWVRQAPGKGLEWVGRIKSKTDGGTTNYAAPVKGRFTISRDDSKTTLFLQMNSLKTEDTAVYYCTGGDYPLFAYWGQGALVTVSS
notes: also called C34 scFv
B4: anti-CD123 scFv-C18 (scFv)
scFv: QSALTQPASVSGSPGQSITISCTGTSSDVGGYNYVSWYQQHPGKAPKLMIYDVSNRPSGVSNRFSGSKSGNTASLTISGLQAEDEADYYCSSYTSSSTLFVFGTGTELTVLGGGGSGGGGSGGGGSQVQLQESGPGLVKPSQTLSLTCTVSGGSISSGDYYWSWIRQSPGKGLEWIGYIHSTGTTYYNPSLKSRLTISLDTSKNQFSLKLNSVTAADTAVYYCARGGVGTIFNYWGQGTLVTVSS
notes: also called C18 scFv
B5: anti-CD123 scFv-C11 (scFv)
scFv: QSVVTQPPSASGTPGQRVTISCSGSSSNIGSNYVYWYQQLPGTAPKLLIYRNNQRPSGVPDRFSGSKSGTSASLAISGLRSEDEADYYCAAWDDSLSGYVFGTGTKLTVLGGGGSGGGGSGGGGSEVQLVESGGGLVQPGRSLRLSCTASGFTFGDYAMSWVRQAPGKGLEWVGFIRSKAYGGTTEYAASVKGRFTISRDDSKSIAYLQMNSLKTEDTAVYYCTRDIGYYGSGSYSPFDYWGQGTLVTVSS
notes: also called C11 scFv; C11 CAR
B6: anti-CD123 scFv-C29 (scFv)
scFv: B5 scFv with S2P, V4L, L107V, Q128H
notes: also called C29 scFv
B7: anti-CD123 scFv-C16 (scFv)
scFv: QSVVTQPPSASGTPGQRVTISCSGSSSNIEGNTVSWYQQFPGAAPKLLIYSNSYRASGVPDRFSGSKSGTSASLAISELQSEDEADYYCSAWDDSLNGPVFGGGTELTVLGGGGSGGGGSGGGGSQVQLQESGGGLVQPGGSLRLSCAASGFTFSSYSMNWVRQAPGKGLEWVSYISSSSSTIYYADSVKGRFTISRDNAKNSLYLQMNSLRAEDTAVYYCARDIYGDWDYYYYGMDVWGQGTTVTVSS
notes: also called C16 scFv
B8: anti-CD123 scFv-C32 (scFv)
scFv: QSVVTQPPSASGTPGQRVTISCSGSSSNIEGNTVSWYQQFPGAAPKLLIYSNSYRASGVPDRFSGSKSGTSASLAISELQSEDEADYYCSAWDDSLNGPVFGGGTKVTVLGGGGSGGGGSGGGGSEVQLVESGGGLVQPGGSLRLSCAASGFTFTSYAMNWVRQAPGKGLEWVSDISSSSSYIYYADSVKGRFTISRDNAKNSLYLQMNSLRAEDTAVYYCARDLYSGYDYGYYYGMDVWGQGTTVTVSS
notes: also called C32 scFv
B9: anti-CD123 scFv-C23 (scFv)
scFv: DILMTQSPSSLSASVGDRVTITCQASQDISNYLNWYQQKPGKAPKLLIYDASNLETGVPSRFSGSGSGTGFSFTISSLQPEDFATYYCQQYGNLPLTFGGGTKLEIKGGGGSGGGGSGGGGSQVQLVQSGAEVKKPGASVKVSCKASGYTFTSYGISWVRQAPGQGLEWMGWISAYNGNTNYAQKLQGRVTMTTDTSTSTAYMELRSLRSDDTAVYYCARDRIAAAEVYYYYGMDVWGQGTTVTVSS
notes: also called C23 scFv
B10: anti-CD123 scFv-C33 (scFv)
scFv: DIRLTQSPSSLSASVGDTITITCRASQDISSWIAWYQQKPGTAPRLLIYAASSLQSGVPSRFSGSGSGTDFTLTINSLHPEDFATYYCQQGSTFPLAFGGGTKVEIKGGGGSGGGGSGGGGSQVQLVQSGAEVKKPGSSVKVSCKASGGTFSSYAISWVRQAPGQGLEWMGGIIPIFGTANYAQKFQGRVTITADESTSTAYMELSSLRSEDTAVYYCARGLDNWNDVGWFDPWGQGTLVTVSS
notes: also called C33 scFv
B11: anti-CD123 scFv-C21 (scFv)
scFv: QSVLTQPPSASGTPGQRVTISCSGSSSNVGGNPVYWYRQVPTAAPKLLVYGHNQRPPRDPDRFSGSKSGTSASLAISGLRSEDEADYYCAAWDDSLSGWVFGGGTELTVLGGGGSGGGGSGGGGSEVQLVESGGGLVQPGRSLRLSCAASGFTFDDYAMHWVRQAPGKGLEWVSGISWNSGSIGYADSVKGRFTISRDNAKNSLYLQMNSLRAEDTALYYCAKGRYVDIVATINDAFDIWGQGTMVTVSS
notes: also called C21 scFv
B12: anti-CD123 scFv-C14 (scFv)
scFv: DIRMTQSPSSLSASVGDRVTITCQASQDITNYLNWYHQKPGKAPKLLIYDASNLETGVPSRFSGGGSGTDFTFTISSLQSEDIGTYYCQQYDDLPLTFGGGTKVEIKGGGGSGGGGSGGGGSQVQLQESGPGLVKPSETLSLTCTVSGGSISSSSHYWGWIRQPPGKGLEWIGSIYYSGSTYYNPSLKSRVTISVDTSKNQFSLKLSSVTAADTAVYYCARRVWVWPTYGMDVWGQGTTVTVSS
notes: also called C14 scFv
B13: anti-CD123 scFv-C15 (scFv)
scFv: DIQLTQSPSTLSASVGDRVTISCRASQSISSWLAWYQHKPGKAPKLLIYKTSALEDGVPSRFSGSGSGTEFTLTISSLQPDDFATYFCLHYGSYTFGQGTKVDIKGGGGSGGGGSGGGGSEVQLVESGGGLVNPGGSLRLSCEASGFTFSDYYISWIRQAPGKGLEWISYISGSSTYTDFADSVKGRFTISRDNAKNTVFLQMNSLRAEDTAVYYCARDRRGRFDPWGQGTLVTVSS
notes: also called C15 scFv
B14: anti-CD123 scFv-C19 (scFv)
scFv: DIRMTQSPSSLSASVGDRVTITCRASQDIRHDLGWYQQKPGKAPSLLMYATSTLQSGVPSRFSGSGSGTHFTLTISSLKPEDSATYYCLQDGDYPLTFGGGTKLEIKGGGGSGGGGSGGGGSQVQLVQSGGGVVQPGRSLRLSCAASGFTFSSYGMHWVRQAPGKGLEWVAVISYDGSNKYYADSVKGRFTISRDNSKNTLYLQMNSLRAEDTAVYYCAKDPSLIQYYYYGMDVWGQGTMVTVSS
notes: also called C19 scFv
B15: anti-CD123 scFv-C30 (scFv)
scFv: AIRLTQSPSSLSASVGDRVTITCQASQNINNYLNWYQQKSGKAPKLLIYDASNLEAGVPSRFSGSASGTDFTFTISSLQPEDIATYYCQQNDNLPLTFGQGTRLEIKGGGGSGGGGSGGGGSEVQLVESGGGVVRPGGSLRLSCAASGFTFGDYGMSWVRQAPGKGLEWVSGINWNGGSTGYADSVKGRFTISRDNAKNSLYLQMNSLRAEDTALYYCARDRAPDYGDYLQVGTTDYWGQGTLVTVSS
notes: also called C30 scFv
B16: anti-CD123 scFv-C27 (scFv)
scFv: EIVLTQSPGTVSLSPGERATLSCRASQRVSATYLAWYQQKPGQAPRLLMYGGSRRATGIPDRFSGSGSGTDFTLTIRRLEPEDSAVYYCQQYGSSPLTFGGGTKLEIKGGGGSGGGGSGGGGSQVQLVQSGSELKKPGASVKVSCKASGYTFTSYGISWVRQAPGQGLEWMGWISAYNGNTNYAQKLQGRVTMTTDTSTSTAYMELRSLRSDDTAVYYCARDPYDDYGGNSRDEEDAFDIWGQGTTVTVSS
notes: also called C27 scFv
B17: anti-CD123 scFv-C26 (scFv)
scFv: QSVLTQPPSASGTPGQRVTISCSGSRSNIGSNTVSWYQQFPGTAPKLLIYLNNQRPSGVPDRFSGSKSGTSASLAISGLQSEDEAEYYCATWDDDLNGVFGGGTKLTVLGGGGSGGGGSGGGGSEVQLVESGGGLVQPGGSLRLSCAASGFTLSNFEMNWVRQAPGRGLEWVSYISATTSATSYADSVKGRFTISRDNAKNSLYLQMNSLRAEDTAVYYCARVRDGYNFGYYYYYMDVWGKGTTVTVSS
notes: also called C26 scFv
B18: anti-CD123 scFv-C24 (scFv)
scFv: DIQMTQSPSSLSASVGDRVTITCRASQSISSYLNWYQQKPGKAPKLLIHAASSLQSGVPSKFSGSGSGTDFTLTISSLQPEDFATYYCLQYKTYPYTFGPGTKVEIKGGGGSGGGGSGGGGSQVQLVQSGAEVKKPGSSVKVSCKASGGTFSSYAISWVRQAPGQGLEWMGGIIPIFGTANYAQKFQGRVTITADESTSTAYMELSSLRSEDTAVYYCARDSPSGSTNYYYYYMDVWGKGTTVTVSS
notes: also called C24 scFv
B19: anti-CD123 scFv-C13 (scFv)
scFv: DVVMTQTPLSLPVTLGQPASISCRSSQGLVFSDGVTYLNWFQQRPGQSPRRLIYKVSNRDSGVPDRFSGSGSGTDFTLKISRVEAEDVGIYYCMQGTHWPHTFGQGTKLEIKGGGGSGGGGSGGGGSEVQLVESGGGLVKPGGSLRLSCAASGFTFSSYSMNWVRQAPGKGLEWVAFISHDASKKFYADSVKGRFTLSRDNSKNTLYLEMNSLGAEDTALYYCGRDRNWGFSDFWGQGTLVTVSS
notes: also called C13 scFv

Target: T1, BCMA-Fc recombinant protein
Test: flow cytometry: lentivirally transduced CAR-T cells stained with 5 µg/ml BCMA-Fc, detected with anti-human IgG Fc (FIG. 17B)

Row | binding result | Binder
1 | binds | B1
2 | binds | B2

Target: T2, CD123-Fc recombinant protein
Test: FACS staining of CAR-T cells with CD123-Fc recombinant protein (FIG. 28)

Row | binding result | Binder
3 | binds | B3
4 | binds | B4
5 | binds | B5
6 | binds | B6
7 | binds | B7
8 | binds | B8
9 | binds | B9
10 | binds | B10
11 | binds | B11
12 | binds | B12
13 | binds | B13
14 | binds | B14
15 | binds | B15
16 | binds | B16
17 | binds | B17
18 | binds | B18
19 | binds | B19
